Experimental data as given in the supplement of paper PMC11246515.
± gives the standard deviation of the averaged measurements.

Test: total protein half-life in vivo (active degradation + dilution); higher = more stable protein
[1] = E. coli NCM3722 delta-clpP delta-lon delta-hslV, growth: N-lim chemostat, doubling time 6 h
[2] = E. coli NCM3722 delta-clpP, growth: N-lim chemostat, doubling time 6 h
[3] = E. coli NCM3722 delta-hslV, growth: N-lim chemostat, doubling time 6 h
[4] = E. coli NCM3722 delta-lon, growth: N-lim chemostat, doubling time 6 h
[5] = E. coli NCM3722 delta-smpB, growth: N-lim chemostat, doubling time 6 h
[6] = wild type E. coli NCM3722, growth: C-lim chemostat, doubling time 3 h
[7] = wild type E. coli NCM3722, growth: C-lim chemostat, doubling time 6 h
[8] = wild type E. coli NCM3722, growth: C-lim chemostat, doubling time 12 h
[9] = wild type E. coli NCM3722, growth: N-lim chemostat, doubling time 6 h
[10] = wild type E. coli NCM3722, growth: N-lim chemostat, doubling time 12 h
[11] = wild type E. coli NCM3722, growth: P-lim chemostat, doubling time 6 h
[12] = wild type E. coli NCM3722, growth: P-lim chemostat, doubling time 12 h

| Sequence | total protein half-life in vivo [1] | total protein half-life in vivo [2] | total protein half-life in vivo [3] | total protein half-life in vivo [4] | total protein half-life in vivo [5] | total protein half-life in vivo [6] | total protein half-life in vivo [7] | total protein half-life in vivo [8] | total protein half-life in vivo [9] | total protein half-life in vivo [10] | total protein half-life in vivo [11] | total protein half-life in vivo [12] |
| --- | --- | --- | --- | --- | --- | --- | --- | --- | --- | --- | --- | --- |
| MADILLLDNIDSFTYNLADQLRSNGHNVVIYRNHIPAQTLIERLATMSNPVLMLSPGPGVPSEAGCMPELLTRLRGKLPIIGICLGHQAIVEAYGGYVGQAGEILHGKASSIEHDGQAMFAGLTNPLPVARYHSLVGSNIPAGLTINAHFNGMVMAVRHDADRVCGFQFHPESILTTQGARLLEQTLAWAQQKLEPANTLQPILEKLYQAQTLSQQESHQLFSAVVRGELKPEQLAAALVSMKIRGEHPNEIAGAATALLENAAPFPRPDYLFADIVGTGGDGSNSINISTASAFVAAACGLKVAKHGNRSVSSKSGSSDLLAAFGINLDMNADKSRQALDELGVCFLFAPKYHTGFRHAMPVRQQLKTRTLFNVLGPLINPAHPPLALIGVYSPELVLPIAETLRVLGYQRAAVVHSGGMDEVSLHAPTIVAELHDGEIKSYQLTAEDFGLTPYHQEQLAGGTPEENRDILTRLLQGKGDAAHEAAVAANVAMLMRLHGHEDLQANAQTVLEVLRSGSAYDRVTALAARG | 3.96 ± 0.42 h | 3.018 ± 0.0036 h | 2.96 ± 0.18 h | 3.02 ± 0.12 h | 2.769 ± 0.019 h | 3.23 ± 0.33 h | 4.79 ± 0.1 h | 10.4 ± 1.9 h | 3.01 ± 0.27 h | 3.72 ± 0.29 h | 6.54 ± 1.6 h | 12.2 ± 3.9 h |
| MSKKIAVIGECMIELSEKGADVKRGFGGDTLNTSVYIARQVDPAALTVHYVTALGTDSFSQQMLDAWHGENVDTSLTQRMENRLPGLYYIETDSTGERTFYYWRNEAAAKFWLESEQSAAICEELANFDYLYLSGISLAILSPTSREKLLSLLRECRANGGKVIFDNNYRPRLWASKEETQQVYQQMLECTDIAFLTLDDEDALWGQQPVEDVIARTHNAGVKEVVVKRGADSCLVSIAGEGLVDVPAVKLPKEKVIDTTAAGDSFSAGYLAVRLTGGSAEDAAKRGHLTASTVIQYRGAIIPREAMPA | 4.86 ± 0.33 h | 4.46 ± 0.27 h | 4.84 ± 1.2 h |  | 4.53 ± 0.19 h | 2.44 ± 0.65 h | 5.96 ± 0.1 h | 11.1 ± 0.28 h | 4.64 ± 0.11 h | 8.67 ± 1.7 h | 5.5 ± 0.33 h | 10.6 ± 1.2 h |
| MAYQSQDIIRRSATNGLTPAPQARDFQEEVAKLIDVTTCIGCKACQVACSEWNDIRDTVGNNIGVYDNPNDLSAKSWTVMRFSEVEQNDKLEWLIRKDGCMHCSDPGCLKACPAEGAIIQYANGIVDFQSEQCIGCGYCIAGCPFDIPRLNPEDNRVYKCTLCVDRVVVGQEPACVKTCPTGAIHFGTKESMKTLASERVAELKTRGYDNAGLYDPAGVGGTHVMYVLHHADKPNLYHGLPENPEISETVKFWKGIWKPLAAVGFAATFAASIFHYVGVGPNRADEEENNLHEEKDEERK [P0AAJ5] | 4.44 ± 0.47 h |  | 3.37 h |  | 3.15 h |  | 6.15 h | 7.88 h | 5.98 ± 0.62 h |  | 5.29 h |  |
| MAIKLIAIDMDGTLLLPDHTISPAVKNAIAAARARGVNVVLTTGRPYAGVHNYLKELHMEQPGDYCITYNGALVQKAADGSTVAQTALSYDDYRFLEKLSREVGSHFHALDRTTLYTANRDISYYTVHESFVATIPLVFCEAEKMDPNTQFLKVMMIDEPAILDQAIARIPQEVKEKYTVLKSAPYFLEILDKRVNKGTGVKSLADVLGIKPEEIMAIGDQENDIAMIEYAGVGVAMDNAIPSVKEVANFVTKSNLEDGVAFAIEKYVLN [P0A8Y5] | 4 ± 0.43 h | 3.61 ± 0.23 h | 3.55 ± 0.38 h | 3.69 ± 0.1 h | 3.408 ± 0.021 h | 3.08 ± 0.22 h | 5.71 ± 0.32 h | 9.92 ± 0.27 h | 3.52 ± 0.2 h | 5.28 ± 0.29 h | 5.06 ± 0.13 h | 11.4 ± 0.92 h |
| MEPKTKKQRSLYIPYAGPVLLEFPLLNKGSAFSMEERRNFNLLGLLPEVVETIEEQAERAWIQYQGFKTEIDKHIYLRNIQDTNETLFYRLVNNHLDEMMPVIYTPTVGAACERFSEIYRRSRGVFISYQNRHNMDDILQNVPNHNIKVIVVTDGERILGLGDQGIGGMGIPIGKLSLYTACGGISPAYTLPVVLDVGTNNQQLLNDPLYMGWRNPRITDDEYYEFVDEFIQAVKQRWPDVLLQFEDFAQKNAMPLLNRYRNEICSFNDDIQGTAAVTVGTLIAASRAAGGQLSEKKIVFLGAGSAGCGIAEMIISQTQREGLSEEAARQKVFMVDRFGLLTDKMPNLLPFQTKLVQKRENLSDWDTDSDVLSLLDVVRNVKPDILIGVSGQTGLFTEEIIREMHKHCPRPIVMPLSNPTSRVEATPQDIIAWTEGNALVATGSPFNPVVWKDKIYPIAQCNNAFIFPGIGLGVIASGASRITDEMLMSASETLAQYSPLVLNGEGMVLPELKDIQKVSRAIAFAVGKMAQQQGVAVKTSAEALQQAIDDNFWQAEYRDYRRTSI | 6.33 ± 0.63 h | 6.5 ± 0.58 h | 5.686 ± 0.037 h | 6.01 ± 0.3 h | 6.06 ± 0.73 h | 3.1 ± 0.2 h | 5.94 ± 0.31 h | 10.8 ± 0.22 h | 5.23 ± 0.31 h | 10.8 ± 0.32 h | 6.05 ± 0.42 h | 12.1 ± 0.8 h |
| MKLRWFAFLIVLLAGCSSKHDYTNPPWNAKVPVQRAMQWMPISQKAGAAWGVDPQLITAIIAIESGGNPNAVSKSNAIGLMQLKASTSGRDVYRRMGWSGEPTTSELKNPERNISMGAAYLNILETGPLAGIEDPKVLQYALVVSYANGAGALLRTFSSDRKKAISKINDLDADEFLEHVARNHPAPQAPRYIYKLEQALDAM [P0C960] |  | 4.98 ± 0.62 h | 3.8 ± 0.54 h | 3.57 ± 0.47 h | 2.72 ± 0.08 h | 1.97 ± 0.14 h | 2.98 ± 0.34 h | 6.46 ± 0.21 h | 2.84 ± 0.17 h | 3.2 h | 4 ± 0.3 h | 7.81 ± 0.18 h |
| MVSLEKNDHLMLARQLPLKSVALILAGGRGTRLKDLTNKRAKPAVHFGGKFRIIDFALSNCINSGIRRMGVITQYQSHTLVQHIQRGWSFFNEEMNEFVDLLPAQQRMKGENWYRGTADAVTQNLDIIRRYKAEYVVILAGDHIYKQDYSRMLIDHVEKGARCTVACMPVPIEEASAFGVMAVDENDKIIEFVEKPANPPSMPNDPSKSLASMGIYVFDADYLYELLEEDDRDENSSHDFGKDLIPKITEAGLAYAHPFPLSCVQSDPDAEPYWRDVGTLEAYWKANLDLASVVPELDMYDRNWPIRTYNESLPPAKFVQDRSGSHGMTLNSLVSGGCVISGSVVVQSVLFSRVRVNSFCNIDSAVLLPEVWVGRSCRLRRCVIDRACVIPEGMVIGENAEEDARRFYRSEEGIVLVTREMLRKLGHKQER [P0A6V1] | 6.16 ± 0.19 h |  | 6.42 ± 1 h | 5.94 ± 0.29 h | 5.54 ± 0.52 h | 3.34 ± 0.11 h | 6.04 ± 0.72 h | 12.2 ± 0.15 h | 5.535 ± 0.042 h | 9.99 ± 0.24 h | 6.46 ± 0.65 h | 12.2 ± 0.32 h |
| MSDTLLTLRDVHINFPARKNWLGKTTEHVHAINGIDLQIRRGETLGIVGESGCGKSTLAQLLMGMLQPSHGQYIRSGSQRIMQMVFQDPLSSLNPRLPVWRIITEPLWIAKRSSEQQRRALAEELAVQVGIRPEYLDRLPHAFSGGQRQRIAIARALSSQPDVIVLDEPTSALDISVQAQILNLLVTLQENHGLTYVLISHNVSVIRHMSDRVAVMYLGQIVELGDAQQVLTAPAHPYTRLLLDSLPAIDKPLEEEWALRKTDLPGNRTLPQGCFFYERCPLATHGCEVRQSLAIREDGRELRCWRAL |  | 3.45 h |  |  | 4.17 ± 0.074 h | 1.74 h | 4.55 h |  | 4.44 h | 6.31 ± 0.42 h |  |  |
| MTIVRIDAEARWSDVVIHNNTLYYTGVPENLDADAFEQTANTLAQIDAVLEKQGSNKSSILDATIFLADKNDFAAMNKAWDAWVVAGHAPVRCTVQAGLMNPKYKVEIKIVAAV [P0AEB7] | 5.7 ± 0.14 h | 5.4 ± 0.17 h | 4.95 ± 0.36 h | 5.51 ± 0.45 h | 5.45 ± 0.95 h | 3.02 ± 0.18 h | 7.21 ± 0.84 h | 13.5 ± 0.29 h | 6.27 ± 1.3 h | 11.2 ± 0.66 h | 6.16 ± 0.16 h | 12 ± 2.1 h |
| MMSESNKQQAVNKLTEIVANFTAMISTRMPDDVVDKLKQLKDAETSSMGKIIYHTMFDNMQKAIDLNRPACQDTGEIMFFVKVGSRFPLLGELQSILKQAVEEATVKAPLRHNAVEIFDEVNTGKNTGSGVPWVTWDIIPDNDDAEIEVYMAGGGCTLPGRSKVLMPSEGYEGVVKFVFENISTLAVNACPPVLVGVGIATSVETAAVLSRKAILRPIGSRHPNPKAAELELRLEEGLNRLGIGPQGLTGNSSVMGVHIESAARHPSTIGVAVSTGCWAHRRGTLLVHADLTFENLSHTRSAL |  | 6.19 h | 6.18 h | 6.4 h |  |  |  |  | 6.42 h |  | 5.88 h |  |
| MTNNDTTLQLSSVLNRECTRSRVHCQSKKRALEIISELAAKQLSLPPQVVFEAILTREKMGSTGIGNGIAIPHGKLEEDTLRAVGVFVQLETPIAFDAIDNQPVDLLFALLVPADQTKTHLHTLSLVAKRLADKTICRRLRAAQSDEELYQIITDTEGTPDEA | 4.58 ± 0.29 h | 3.48 ± 2.9 h | 5.17 ± 0.097 h | 5.82 h | 3.01 ± 0.57 h | 2.46 ± 0.65 h | 5.18 ± 1.6 h | 9.11 ± 5.2 h | 3.79 h | 5.69 ± 0.31 h | 3.46 ± 1.9 h | 8.38 ± 1.6 h |
| MPQISRYSDEQVEQLLAELLNVLEKHKAPTDLSLMVLGNMVTNLINTSIAPAQRQAIANSFARALQSSINEDKAH [P0AD24] | 6.24 ± 0.65 h | 4.76 h | 5.69 ± 0.2 h | 4.63 ± 1.3 h | 4.16 ± 1.4 h | 2.99 ± 0.041 h | 5.16 ± 0.18 h | 10.1 ± 0.73 h | 3.54 ± 0.42 h | 9.19 h | 5.83 h | 10.4 h |
